According to PMC3116811 (PLoS Pathogens, 2011):

Target: T1, chimeric Nb_An05-Fc HCAb (Nb_An05 fused to the hinge and Fc-domain of human IgG1) (camelid)
T1 construct: also called synthetic HCAb; reconstituted HCAb; not shown: Fc (human IgG1, including the hinge), C-terminal, kept
Experiment: ELISA; format not told; Nb_An05-Fc HCAb on the VSG antigen
Conditions: both partners purified

B1: purified soluble AnTat1.1 VSG (variant-specific surface glycoprotein of Trypanosoma brucei AnTat1.1) (natural protein)
chain: QTAGRPLADVVGKTLCTYSKTAKRQAANLAQTLQRASSAAKQSRQAQQLAALALAKLPDYKEAAATLLIYATHKIQDAQASIENWTGENTKLVGQAMYSSGRIDELMLLLEGHREDGANGQDKTCLGAAAGGNTVNEFVKTECDTESGHNIEADNSNIGQAATTLSQESTDPEASGGASCKITANLATDYDSHANELPLLGGLLTIHNAGGFKTGQSLQTAAPTNKLISALKNKGAGVAAKLATVTSAAPTSKQELKTLLASKGERAKLQAANDEYNNWKPGAKPEDFDAHIKKVFGAEDGKDSAYAIALEGISIEAPLGGGQTQNKQLYSMQPKDLMAALIGTIAELQTAAATKPACPGHKQTTTESDALCSKIKDANECNSKHFCSYNGTETDSAKKCKYNATKASASDAPVTQAQTTSRSETPAEKCTGKKKDDCKDGCKWEAETCKD
binding result: binds
